Assay results published in US20050124794A1, “Cell surface tropomyosin as a target of angiogenesis inhibition” (priority 2002, published 2005).

Tests used:
chicken gizzard Tpm [1] = biological target: T1, chicken gizzard Tpm (Gallus gallus, UniProt P19352); test: Binding to immobilized Tpm in a 96 well plate (biotin-HKa competition or direct binding)
T1 construct: purchased Sigma; host or cells: chicken gizzard (tissue-derived, as the name says)
Method: Plates are coated at room temperature with chicken gizzard Tpm (Sigma) in Tris buffer-saline (TBS) (200 ng/well). After incubation for 2 hours, wells are washed with TBS, then 1% BSA/TBS/Tween-20 is added to each well and incubate at 37° C. for two hours. HKa (Enzyme Laboratories) that had been previously biotinylated with EZ-Link (Pierce) according to the manufacturers instructions, is added to the plate at a concentration of 10 nM together with ZnCl2 (10 μM) and the appropriate concentration of the protein, domain or peptide competitor. The plates are incubated at room temperature and then washed with TBS/Tween-20. Avidin-HRP is added, incubated for 20 minutes at room temperature, washed with TBS/Tween-20 and the chromogenic substrate is added. The reaction is stopped with sulfuric acid and the plate read at 490 nm.
The IC50 for the displacement of biotinylated-HKa for the peptides shown in Table 5 was determined as follows: 10 nM biotin-HKa is added to a 96 well plate previously coated with 200 ng of chicken gizzard Tpm in the presence of 10 μM ZnCl2. Increasing amounts of the peptides are added to the wells. The remaining biotin-HKa bound to Tpm was detected using avidin-HRP and a chromogenic substrate. A Kd was determined by non-linear regression analysis of the empirical data. The effect on the Matrigel Plug assay was determined as follows: Matrigel (0.5 mL) containing 400 ng/ml of bFGF, 50 μg/ml heparin with or without the peptide (300 μM) or saline buffer are injected in the flanks of a mouse. After five days, the plugs are removed and the plugs scanned.
The N-terminus of the pentapeptide HHPHG has been derivatized (capped) in an attempt to increase the pentapeptides' affinity to Tpm by increasing productive molecular contacts (or interactions). […] The IC50 for the displacement of biotinylated-HKa for the capped peptides shown in the table was determined as follows: 10 nM biotin-HKa was added to a 96 well plate previously coated with 200 ng of chicken gizzard Tpm in the presence of 10 μM ZnCl2. Increasing amounts of the peptides were added to the wells. The remaining biotin-HKa bound to Tpm was detected using avidin-HRP and a chromogenic substrate. A Kd was determined by non-linear regression analysis of the empirical data

HUVEC = test: EC proliferation assay (growth factor-induced); format: cell-based, human; settings: bFGF 10 ng/ml; 20 nM HKa, 60 nM HKa domain 5
Method: EC proliferation assays. The effect of HKa on ECs in the absence or presence of mAb TM-311 was initially assessed using a proliferation assay, as described in Zhang et al., supra. Relative numbers of cells remaining in each well of a 96 well microplate after incubation for 48 hours in the absence or presence of HKa were determined using the Aqueous® cell proliferation assay (Promega, Madison, Wis.). Results are presented as the percent inhibition of bFGF-induced EC proliferation, which essentially reflects the extent of HKa-induced EC apoptosis. Though bFGF was used as the EC mitogen in most studies of the studies described herein, identical results were obtained using VEGF.

chicken gizzard Tpm [2] = biological target: T1, chicken gizzard Tpm; test: Binding of HKa to purified Tpm immobilized in 96 well microplates; settings: for inhibition of binding of HKa to purified immobilized Tpm (in words): 20 nM biotin-HKa, 10 μM Zn2+
Method: To measure the binding of HKa to purified Tpm, 96 well microplates were coated with 20 μg/ml of chicken gizzard Tpm (Sigma), or bovine serum albumin (BSA), as a control. Wells were then blocked by incubation with phosphate buffered saline containing 5% nonfat milk, and incubated with increasing concentrations of HKa (0.01-20 nM) for 2 hours. Specifically-bound HKa was quantitated as described for cell binding assays (van Iwaarden et al., supra, and by assessing the ability of a 100-fold molar excess of unlabeled HKa to compete with biotin-HKa for binding.
In selected experiments, the ability of mAb TM-311 and recombinant HKa D5 to inhibit the binding of biotin-HKa to Tpm was assessed. These studies allowed determination of the Kd for binding of HKa D5 to Tpm using the equation: Kd (D5)=IC50/(1+[HKa]/Kd (HKa)) where IC50 is the concentration of HKa D5 that inhibited HKa binding by 50%, and Kd(HKa) is the Kd for binding of HKa to Tpm.

hTm3 = hTm3 (Homo sapiens, UniProt P09493); settings: SPR, MacDonald et al. 2001; read-out: Kd of binding to immobilized hTm3; cited from earlier work
Chain of hTm3 (P09493 1-284 isoform P09493-3): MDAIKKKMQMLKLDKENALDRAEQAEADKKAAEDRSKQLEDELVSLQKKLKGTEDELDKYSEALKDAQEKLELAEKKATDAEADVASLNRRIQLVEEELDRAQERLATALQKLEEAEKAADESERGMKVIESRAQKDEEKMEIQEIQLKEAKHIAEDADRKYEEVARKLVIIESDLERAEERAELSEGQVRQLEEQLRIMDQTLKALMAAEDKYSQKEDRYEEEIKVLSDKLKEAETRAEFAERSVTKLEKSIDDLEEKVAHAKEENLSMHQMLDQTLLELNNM

[3] = plate coated with 200 ng chicken gizzard Tpm, 10 μM ZnCl2
[4] = competition with 10 nM biotin-HKa

T1 sequence (P19352 1-284 isoform P19352-2): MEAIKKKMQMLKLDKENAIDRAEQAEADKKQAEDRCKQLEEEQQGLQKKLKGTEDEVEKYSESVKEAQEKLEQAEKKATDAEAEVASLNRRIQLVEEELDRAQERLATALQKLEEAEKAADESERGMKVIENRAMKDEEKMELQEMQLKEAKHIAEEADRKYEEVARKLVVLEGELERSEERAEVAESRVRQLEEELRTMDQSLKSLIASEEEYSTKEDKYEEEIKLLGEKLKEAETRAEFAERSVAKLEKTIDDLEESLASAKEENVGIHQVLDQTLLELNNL
T1 sequence (P04268 1-284 isoform P04268-2 F73S/I172L/T199L/N203E/L204A partner): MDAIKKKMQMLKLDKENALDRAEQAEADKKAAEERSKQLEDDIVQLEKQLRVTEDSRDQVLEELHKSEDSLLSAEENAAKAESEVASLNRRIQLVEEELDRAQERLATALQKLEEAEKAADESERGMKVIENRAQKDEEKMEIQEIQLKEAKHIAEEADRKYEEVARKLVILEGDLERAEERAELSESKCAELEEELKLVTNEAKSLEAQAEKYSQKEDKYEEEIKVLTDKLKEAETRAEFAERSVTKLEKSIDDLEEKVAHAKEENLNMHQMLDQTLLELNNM

B1: rabbit HPRG: rabbit Histidine-Proline-Rich Glycoprotein, SEQ ID NO:22 (protein)
chain: LTPTDCKTTKPLAEKALDLINKWRRDGYLFQLLRVADAHLDGAESATVYYLVLDVKETDCSVLSRKHWEDCDPDLTKRPSLDVIGQCKVIATRYSDEYQTLRLNDFNCTTSSVSSALANTKDSPVLFDFIEDTEPFRKSADKALEVYKSESEAYASFRVDRVERVTRVKGGERTNYYVDFSVRNCSRSHFHRHPAFGFCRADLSFDVEASNLENPEDVIISCEVFNFEEHGNISGFRPHLGKTPLGTDGSRDHHHPHKPHKFGCPPPQEGEDFSEGPPLQGGTPPLSPPFRPRCRHRPFGTNETHRFPHHRISVNIIHRPPPHGHHPHGPPPHGHHPHGPPPHGHPPHGPPPRHPPHGPPPHGHPPHGPPPHGHPPHGPPPHGHPPHGPPPHGHPPHGHGFHDHGPCDPPSHKEGPQDLHQHAMGPPPKHPGKRGPGKGHFPFHWRRIGSVYQLPPLQKGEVLPLPEANFPQLLLRNHTHPLKPEIQPFPQVASERCPEEFNGEFAQLSKFFPSTFPK
- binding to immobilized Tpm / displacement of biotin-HKa (in words) (chicken gizzard Tpm [1]; 10 nM biotin-HKa, 200 ng chicken gizzard Tpm, 10 μM ZnCl2): binds
- Kd (chicken gizzard Tpm [1]; [3]): ~2 nM

B2: HKa D5: Recombinant HKa domain 5, 125 residue D5 domain, SEQ ID NO:26 (protein, listed as Homo sapiens)
chain: VSPPHTSMAPAQDEERDSGKEQGHTRRHDWGHEKQRKHNLGHGHKHERDQGHGHQRGHGLGHGHEQQHGLGHGHKFKLDDDLEHQGGHVLDHGHKHKHGHGHGKHKNKGKKNGKHNGWKTEHLAS
- inhibition of bFGF-induced EC proliferation (in words) (HUVEC): inhibition
- inhibition of binding of HKa to purified immobilized Tpm (in words) (chicken gizzard Tpm [2]): blocked binding
- inhibition of binding of HKa to purified immobilized Tpm (in words) (chicken gizzard Tpm [2]; listed as HKa domain 5): inhibits binding
- Kd (chicken gizzard Tpm [2]; from IC50 of competition with biotin-HKa (equation of b366), read-out: estimated Kd of binding to Tpm): ~2.1 nM
- affinity for immobilized Tpm relative to endostatin (fold higher) (chicken gizzard Tpm [1]; [4]): approximately 1,000 fold
- Kd (chicken gizzard Tpm [1]; [3]): ~1 nM

B3: H/P domain: Histidine-Proline rich domain of HPRG, responsible for anti-angiogenic activity (protein)
chain: SVNIIHRPPPHGHHPHGPPPHGHHPHGPPPHGHPPHGPPPRHPPHGPPPHGHPPHGPPPHGHPPHGPPPHGHPPHGPPPHGHPPHGHGFHDHGPCDPPSHK
- affinity for immobilized Tpm relative to endostatin (fold higher) (chicken gizzard Tpm [1]; [4]): approximately 1,000 fold
- Kd (chicken gizzard Tpm [1]; [3]): ~2 nM

B4: endostatin: Zn2+-binding, antiangiogenic polypeptide comprised of the NC domain of collagen XVIII (protein, UniProt P39060 1572-1754, looked up)
Endostatin: HSHRDFQPVLHLVALNSPLSGGMRGIRGADFQCFQQARAVGLAGTFRAFLSSRLQDLYSIVRRADRAAVPIVNLKDELLFPSWEALFSGSEGPLKPGARIFSFDGKDVLRHPTWPQKSVWHGSDPNGRRLTESYCETWRTEAPSATGQASSLLGGRLLGQSAASCHHAYIVLCIENSFMTASK
modifications: Endostatin
- Kd (hTm3): ~100000 nM
- Kd relative to that reported previously by SPR (fold better) (chicken gizzard Tpm [1]): 50 fold
- affinity relative to HKa or HKa-D5 binding (fold lower) (chicken gizzard Tpm [1]): approximately 1,000 fold
- Kd (chicken gizzard Tpm [1]; competition with 10 nM biotin-HKa, 10 μM ZnCl2): ~2000 nM
